Results published in patent US20200362024A1, “BIOLOGICAL MATERIALS AND USES THEREOF” (IMPERIAL INNOVATIONS LIMITED, priority 2009, published 2020).

Tests used:
[1] = system: knee joint of TLR2 and TLR4 null mice; experiment: Intra-articular injection of FBG in TLR2 and TLR4 null mice; assay type: in vivo; conditions: 1 μg FBG intra-articular, 3 days
Description: (§1) Homozygous TLR2 and TLR4 deficient mice on a C57BL/6 background (an inbred strain of mice with a black coat) were obtained from B&K Universal (Hull, UK) Hoshino (1999) and Takeuchi (1999). Homozygous MyD88 deficient mice on a C57BL/6 background were provided by the Sanger Institute (Cambridge, UK). Age matched congenic inbred wild type C57B/L6 mice were obtained from Charles River (Margate, UK). For isolation of mouse embryo fibroblasts one female aged 8-10 weeks was mated with two males aged 8-10 weeks. For isolation of bone marrow derived macrophages mice were female and between 10-12 weeks of age at the time of experimentation.
Wild type mice were anesthetized by intraperitoneal injection of 150 μl of Hypnorm diluted 1:10 in sterile water and then injected with 100 ng, 1 or 3 μg FBG in 10 μl of sterile PBS into the right knee joint using a sterile 33-gauge microcannula. Control mice received an injection of 10 μl PBS alone or were not injected.
On days 3 and 7, mice were euthanized, the knee joints were excised and fixed in 10% (volume/volume) buffered formalin, decalcified, with 10% EDTA and processed to paraffin.
Coronal tissue sections (4 μm) were cut at 7 depths throughout the joint; 80 μm apart and stained with hematoxylin and eosin or Safranin-O to assess joint pathology. Histopathologic changes were scored using the following parameters as described in Van Lent (2006). […]

MyD88 = experiment: FBG induction of IL-6 in RA synovial fibroblasts infected with adenovirus expressing dominant negative MyD88; assay type: cell-based, human; conditions: FBG 1 μM, 24 h; GFP control virus without effect
Description: Recombinant, replication-deficient adenoviral vectors encoding wild type MyD88 (AdMyD88 wt), dominant-negative forms of MyD88 (AdMyD88dn) and the GFP control (AdGFP) were constructed in-house. A description of the synthesis of these viruses is in Andreakos (2004). All viruses used in this study are E1/E3 deleted, belong to the Ad5 serotype. Viruses were propagated in 293 human embryonic kidney cells, purified by ultracentrifugation through two cesium chloride gradients, and viral titers determined by plaque assay as previously described (Sacre (2007)).
For adenoviral gene transfer experiments, human RA synovial fibroblasts were incubated with adenoviral vectors at a multiplicity of infection of 100, washed after 2 hours, cultured in complete medium for 24 hours, then stimulated for 24 hours, after which time supernatants were collected.
(§2) Supernatants were subsequently examined for the presence of the cytokines TNF-α, IL-6, and IL-8 by enzyme-linked immunosorbent assay (ELISA) according to the manufacturer's instructions. Absorbance was read on a spectrophotometric ELISA plate reader (Labsystems Multiscan Biochromic, Vantaa, Finland) and analyzed using the Ascent software program (Thermo Labsystems, Altrincham, UK).

[2] = system: TLR2 or TLR4 deficient embryonic fibroblasts and bone marrow derived macrophages; experiment: Cytokine synthesis in embryonic fibroblasts and macrophages from TLR2 or TLR4 deficient mice; assay type: cell-based, mouse; conditions: 24 h
Description: as §1
MEFs express high levels of mRNA of all 9 murine TLRs and are specifically and highly responsive to TLR ligand activation. […] MEFs were isolated from d13 embryos harvested from age-matched, pregnant female wild type, TLR2, TLR4 and null mice (as described in Todaro (1963)). Fibroblasts were cultured at 2×10^4 cells/well in DMEM containing 10% (v/v) FBS and 100 U/ml penicillin/streptomycin in 96-well tissue culture plates for 24 hours before stimulation.
BMDMs were derived by aspirating the femurs of age matched female wild type, TLR2 and TLR4 null mice as described in Butler (1999)) and culturing the cells for 7 days in DMEM, 20% (v/v) FBS, 10 ml/L (v/v) antibiotic-antimycotic solution PSA, 50 μM Mercaptoethanol and 10 ng/ml M-CSF. Macrophages were then cultured at 1×10^5 cells/well in DMEM, 20% (v/v) FBS, 10 ml/L (v/v) antibiotic-antimycotic solution PSA, 50 μM β-Mercaptoethanol in 96-well tissue culture plates for 24 hours before stimulation.
(§3) Cells were incubated for 24 hours at 37° C. with the indicated doses of tenascin-C and recombinant tenascin-C fragments (1.0 μM-1.0 nM). Cells were also stimulated where indicated with LPS (1 ng/ml for human macrophages, 10 ng/ml for human fibroblasts, RA membrane cells and HEKs, 100 ng/ml for MEFS and BMDMs and 10 ng/ml for HEKS), PAM3 (10 ng/ml for human macrophages, human fibroblasts, and HEKs, 100 ng/ml for MEFs and BMDMs), murine IL-1 (5 ng/ml for MEFS) and murine TNF-α (100 ng/ml for MEFS). Unless specifically stated otherwise rough LPS was used for in vitro studies.
as §2

[3] = system: MyD88 deficient mouse embryonic fibroblasts; experiment: Cytokine synthesis in mouse embryonic fibroblasts from MyD88 deficient mice; assay type: cell-based; conditions: 24 h; FBG 1 μM, PAM3, LPS, TNFα 100 ng/ml, IL-1 5 ng/ml
Description: as §1, with “Homozygous” for “Homozygous TLR2 and TLR4 deficient mice on a C57BL/6 background (an inbred strain of mice with a black coat) were obtained from B&K Universal (Hull, UK) Hoshino (1999) and Takeuchi (1999). Homozygous”
MEFs express high levels of mRNA of all 9 murine TLRs and are specifically and highly responsive to TLR ligand activation. […] Fibroblasts were cultured at 2×10^4 cells/well in DMEM containing 10% (v/v) FBS and 100 U/ml penicillin/streptomycin in 96-well tissue culture plates for 24 hours before stimulation.
as §3, §2

B1: FBG: recombinant fibrinogen-like globe, 227 amino acid globular domain at the C terminal of tenascin-C (protein)
chain: GLLYPFPKDCSQAMLNGDTTSGLYTIYLNGDKAEALEVFCDMTSDGGGWIVFLRRKNGRENFYQNWKAYAAGFGDRREEFWLGLDNLNKITAQGQYELRVDLRDHGETAFAVYDKFSVGDAKTRYKLKVEGYSGTAGDSMAYHNGRSFSTFDKDTDSAITNCALSYKGAFWYRNCHRVNLMGRYGDNNHSQGVNWFHWKGHEHSIQFAEMKLRPSNFRNLEGRRKRA
joint inflammation in TLR2 null mice [1]: able to induce | induction of IL-6 in synovial fibroblasts expressing dominant negative MyD88 (MyD88): abolished | cytokine synthesis in cells from TLR2 deficient mice [2]: unaffected | cytokine synthesis in cells from TLR4 deficient mice [2]: does not stimulate | cytokine synthesis in embryonic fibroblasts with targeted deletion of MyD88 [3]: does not stimulate
